Experimental data reported in the supplement of paper PMC9732359.
± gives the uncertainty stated by the source.

Assay: protein stability index of a GFP-peptide fusion (yeast GPS) (PSI 1-4); higher = more stable; sorted into four equal gates, so the index is relative within each strain
Procedure, shortened: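 Yeast carrying a pooled library were grown to mid-log phase in leucine-free medium. Each library plasmid expresses Cherry and has a tiled 17-residue yeast protein peptide fused downstream of GFP. Cells were sorted into four equal gates by GFP/Cherry ratio, and plasmids from each gate were PCR-amplified, Illumina-sequenced and assigned to strains by barcode. Summing, across gates, the read frequency times the gate number gave each peptide's protein stability index.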

Sequence	protein stability index (doa10∆)	protein stability index (pdr5∆)	protein stability index (san1∆)	protein stability index (ubr1∆)
SDVLLFQLPTTCVSMAP [RGR1]	2.25 ± 0.047	1.83 ± 0.036	1.87 ± 0.05	1.77 ± 0.028
ANATAAESDVAKQLAAL [RPL16A]	3 ± 0.043	2.84 ± 0.061	3.19 ± 0.046	3.23 ± 0.05
LINDSYINDVHLLYPPH [SSN8]	3.29 ± 0.058	3.14 ± 0.057	2.96 ± 0.045	3.25 ± 0.053
HGIVFQHPFPLAHSQHR [SSN2]	2.14 ± 0.066	2.23 ± 0.068	2.01 ± 0.085	2.38 ± 0.078
DEAKEKQLVEKAELRLA [ECM29]		3.26 ± 0.24		3.27 ± 0.16
CGHRILLKARTKRLVQF [RPC10]	1.43 ± 0.11	1.99 ± 0.13	1.68 ± 0.18	1.22 ± 0.052
RKPILLPDPKPLPLDLN [ITC1]	2.34 ± 0.044	2.55 ± 0.045	2.52 ± 0.065	2.14 ± 0.04
MAKQLIRLANESSELNK [CSN12]	3 ± 0.08	2.62 ± 0.064	2.96 ± 0.079	2.63 ± 0.073
LKCAERQLTSMEFSNLY [NUT1]	2.06 ± 0.054	1.87 ± 0.034	1.65 ± 0.072	2.17 ± 0.032
YSPIEKESPWKILMYQY [RRP6]	1.75 ± 0.063	1.89 ± 0.062	1.35 ± 0.11	1.44 ± 0.054
PAITIEKLKQFSWISVV [SIR3]	1.16 ± 0.05	1.45 ± 0.055	1.24 ± 0.094	1.13 ± 0.035
ELDKREDMIDQVSKKLS [SMC3]	3.12 ± 0.061	3 ± 0.082	2.93 ± 0.075	2.81 ± 0.096
YIIQGSNTNDNISIITL [RGR1]	2.77 ± 0.075	2.29 ± 0.083	2.19 ± 0.15	2.22 ± 0.063
VLRLKPGRKYTTLGKLS [RPL16A]	2.83 ± 0.047	2.94 ± 0.05	2.86 ± 0.082	3.03 ± 0.051
RENVFFQSQQRRKDTSM [RPB9]	3.07 ± 0.083	3.4 ± 0.11	3.34 ± 0.065	2.75 ± 0.15
VLSALEGKSVDELITEG [RPP2A]		3.23 ± 0.15	3.41 ± 0.073	3.45 ± 0.28
RNMAEEFEYDDEPDEQG [CYT1]	3.12 ± 0.073	3.17 ± 0.061	3.17 ± 0.064	3.09 ± 0.059
IVKVFHGAFMDIIWLQR [RRP6]	2.1 ± 0.056	1.53 ± 0.047	1.32 ± 0.073	1.18 ± 0.033
THNFKLSGVSNSMDMVD [RGR1]	3.09 ± 0.068	3 ± 0.074	2.93 ± 0.06	3.08 ± 0.062
NIKSSISNGNLATGPNL [YOR098C/NUP1]	2.77 ± 0.09	3.18 ± 0.084	2.99 ± 0.11	2.89 ± 0.065
KSSLSLRDHALSLTAFT [ITC1]	1.63 ± 0.036	2.14 ± 0.036	1.64 ± 0.064	2.16 ± 0.036
IKVPTYIRKLISSGLLY [SRB8]	1.38 ± 0.048	1.27 ± 0.07	1.38 ± 0.085	1.2 ± 0.067
AAANNNIKPVEQHHINN [GAL11]	2.97 ± 0.095	2.67 ± 0.066	2.72 ± 0.077	2.96 ± 0.062
KPGRMPFNFTVTLFQMA [CDC53]	1.65 ± 0.039	1.99 ± 0.043	2.17 ± 0.08	2.05 ± 0.051
QIFKVAGENAPSIVFID [RPT2]	1.84 ± 0.098	1.2 ± 0.059	1.31 ± 0.13	1.33 ± 0.066
DPEKDSINATALAFGYV [SIN4]	2.16 ± 0.052	1.56 ± 0.058	1.52 ± 0.15	1.82 ± 0.042
DGTGVRVIVAGTLDINP [FAS1]	2.36 ± 0.068	2.87 ± 0.071	2.99 ± 0.065	2.59 ± 0.061

Sequence	protein stability index (doa10∆)	protein stability index (pdr5∆)	protein stability index (san1∆)	protein stability index (ubr1∆)
MNLQNNVLNQIHQILLP [CSE2]	2.73 ± 0.062	2.73 ± 0.071	2.24 ± 0.12	3.21 ± 0.12
AIRRDARYNWICNPVHK [RPL15B]	3.03 ± 0.16	3.38 ± 0.13	3.37 ± 0.13	3.21 ± 0.081
MLPPKSVKFTHIAHTLP [SSN2]	1.57 ± 0.073	2 ± 0.05	2.05 ± 0.098	1.82 ± 0.034
FVKKTSEEIDSLNEDVE [SMC2]	2.97 ± 0.17	3.2 ± 0.19		
WHIEETGEWFSSYEEFL [ITC1]	2.31 ± 0.072	2.63 ± 0.077	2.59 ± 0.066	2.53 ± 0.063
VDAYRRLENKLSEIESL [SRP68]	1.4 ± 0.078	1.48 ± 0.073	1.57 ± 0.11	1.68 ± 0.062
SIYDKWTDPNLKSSLAD [RPN1]	2.99 ± 0.1	2.96 ± 0.067	2.88 ± 0.062	3.19 ± 0.054
GNRYLEKRLNLRVEHIK [RPL21A]	3.05 ± 0.077	2.96 ± 0.086	3.08 ± 0.075	3.05 ± 0.071
GNIVKEFENKFQNSYKP [YMR129W/POM152]	3.35 ± 0.081	3.14 ± 0.13	3.37 ± 0.053	3.39 ± 0.098
NGLLNEISRLKTSLSIK [SMC2]	3.1 ± 0.21	3.25 ± 0.11	3.12 ± 0.11	3.11 ± 0.15
FEYSKYRPLTPSSEVYS [RRP6]	3.07 ± 0.086	3.01 ± 0.071	2.87 ± 0.053	2.83 ± 0.056
LPFMQNAGPNSNIPNLL [YDL088C/ASM4]	2.46 ± 0.037	2.18 ± 0.04	2.58 ± 0.039	2.52 ± 0.029
QPIVTGTSVISMKYDNG [PRE4]	2.1 ± 0.25	2.69 ± 0.23	1.93 ± 0.15	2 ± 0.2
ITLLPSSLKESSPDTMK [SNF12]	2.96 ± 0.19			2.27 ± 0.25
LAKKIAPGKVELAINLI [SMC2]		2.88 ± 0.15		2.65 ± 0.1
VLESHWKQDLTKEEAIK [PUP1]	2.71 ± 0.18	3.15 ± 0.13	3.32 ± 0.12	3.08 ± 0.15
NVTETYSVYLIHEIRLN [SIR3]	2.59 ± 0.23	1.98 ± 0.099	2.42 ± 0.14	2.37 ± 0.066
SKVSKQQAKGAFQKVAA [RPL24B]	2.45 ± 0.042	2.97 ± 0.043	2.78 ± 0.036	2.65 ± 0.036
FIANEGVHTGQFIYAGK [RPL2A]	2.98 ± 0.22	2.44 ± 0.17	2.04 ± 0.27	
KLSEIILNINNSTSKNT [SWI1]	2.96 ± 0.067	2.92 ± 0.077	2.74 ± 0.1	3.01 ± 0.062
GIDQYSFNVKENQPFHG [AAR2]	2.65 ± 0.058	2.88 ± 0.058	2.82 ± 0.048	2.9 ± 0.051
EATSNTNSEDKLSKVQL [MED4]	2.82 ± 0.13	2.92 ± 0.071	2.77 ± 0.087	2.93 ± 0.075
HLHDAVFVNTGLQNVRK [SWP82]	2.99 ± 0.14	2.84 ± 0.076	2.77 ± 0.1	2.73 ± 0.088
AQGDPNLEPLIAKLVAV [NUT1]		1.87 ± 0.13	3.08 ± 0.19	1.07 ± 0.088
SELAPIEEHPTVVDAID [IRR1]		3.62 ± 0.19	3.25 ± 0.11	3.05 ± 0.071
PKNLLKKFIEISDVKIQ [PRP8]	1.76 ± 0.064	1.88 ± 0.067	1.76 ± 0.13	2.26 ± 0.05
DEDKFKKLKPIVAKYDP [PRP28]	2.78 ± 0.077	2.9 ± 0.088	2.9 ± 0.094	1.98 ± 0.059
